These results are taken from article PMC3086336.

Assay in all cases: fluorescence polarisation
Background: In fluorescence polarisation assays a small probe gives low polarisation when free and higher when bound to something large.

For test [1], the target named is unphosphorylated form of the RNAPII-CTD (peptide).
For test [2], the target named is pSer2 RNAPII CTD di-heptad repeat peptide.
Test [3] has as its target pSer5 RNAPII CTD di-heptad repeat peptide.
The target in test [4] is pSer(2,5) RNAPII CTD di-heptad repeat peptide.
The target of test [5] is pTyr1 RNAPII CTD di-heptad repeat peptide.

Bounds are passed on as bounds.

B1: Spt6(1247–1451) (domain or fragment)
chain: AKRTHRVINHPYYFPFNGRQAEDYLRSKERGEFVIRQSSRGDDHLVITWKLDKDLFQHIDIQELEKENPLALGKVLIVDNQKYNDLDQIIVEYLQNKVRLLNEMTSSEKFKSGTKKDVVKFIEDYSRVNPNKSVYYFSLNHDNPGWFYLMFKINANSKLYTWNVKLTNTGYFLVNYNYPSVIQLCNGFKTLLKSNSSKNRMNNYR
For the molecule B1, the Kd was > 1000 µM in test [1], 197 µM in test [2], 245 µM in test [3] and 23 µM in test [4].

B2: R1282A/S1284A Spt6(1247–1451) (domain or fragment)
chain: AKRTHRVINHPYYFPFNGRQAEDYLRSKERGEFVIAQASRGDDHLVITWKLDKDLFQHIDIQELEKENPLALGKVLIVDNQKYNDLDQIIVEYLQNKVRLLNEMTSSEKFKSGTKKDVVKFIEDYSRVNPNKSVYYFSLNHDNPGWFYLMFKINANSKLYTWNVKLTNTGYFLVNYNYPSVIQLCNGFKTLLKSNSSKNRMNNYR
Consider B2, for which the fold decrease of binding against WT Spt6(1247–1451) came to 1.2 fold in test [2], 2.4 fold in test [5] and 1.4 fold in test [3].

Broadly, the Kd is the concentration at which binding is half-saturated.
